Source: PMC12637021, “Talin–tensin3 interactions regulate fibrillar adhesion formation and tensin3 phase separation” (The Journal of Cell Biology, 2025)

Assays:
NIH3T3 cells [1] = assay: condensates on soft vs stiff PDMS, NIH3T3 cells; format: cell-based, mouse; settings: 1.5 kPa vs 28 kPa FN-coated PDMS, overnight
Experimental: Imaging dishes equipped with 40 µm-thick PDMS substrates (1.5 and 28 kPa) were purchased from ibidi. PDMS dishes were coated with 30 μg/ml FN for 1 h, followed by three washes with PBS. Dishes were incubated with DMEM for 10 min to equilibrate before cells were plated and incubated overnight at 37°C.
(§1) To establish a correlation between tensin3 expression and condensation formation, a maximum intensity Z-projection was performed on Z-stack images of NIH3T3 cells (step depth 0.2 μm). The integrated fluorescence intensity was measured by normalizing the mean pixel intensity of each cell to the average of all values in cells expressing mCh-TNS3. To measure the condensate coverage in NIH3T3 cells, the images were background-subtracted (rolling ball) and then thresholded. This was followed by the Analyse Particles function in FIJI/ImageJ to select round condensate structures (circularity 0.7–1.0) ([Bussi et al., 2023]; [Dumelie et al., 2024]) with a size larger than 0.1 μm^2. The same settings were applied to quantify the number of condensates in NIH3T3 and HFF cells.

[2] = test system: active β1 integrin, U2OS TNS3KO cells; assay: β1 integrin-positive adhesions, U2OS TNS3KO cells; format: cell-based, human; settings: vs TNS3-WT; FN-coated; 9EG7
Experimental: (§2) Cells were fixed in 4% paraformaldehyde (PFA, Sigma-Aldrich), which had been prewarmed to 37°C for 15 min before being washed three times with PBS. For immunofluorescence staining, cells were permeabilized with 0.5% Triton X-100 (Sigma-Aldrich) at room temperature for 5 min before being washed three times with PBS. Blebbistatin (Tocris Bioscience) was diluted in dimethyl sulfoxide (Sigma-Aldrich) and used at a final concentration of 50 μM. […]
(§3) Analysis of cell adhesion sites, FN fibrils, and LLPS condensates was performed using FIJI/ImageJ (version 1.54f) software ([Schindelin et al., 2012]). […] Prior to adhesion quantification, the images were background-subtracted using a rolling ball algorithm, followed by thresholding of adhesion sites and Analyse Particles functions in FIJI/ImageJ to quantify adhesions. Adhesion sites with sizes between 0.4 and 10 μm^2 were counted, except for adhesions in blebbistatin-treated cells, which were counted with sizes between 0.2 and 4 μm^2. […]

NIH3T3 cells [3] = assay: tensin3 condensate formation, NIH3T3 cells; format: cell-based, mouse
Experimental: as §1
The percentage of NIH3T3 cells transfected with mCh-TNS3 that form phase-separated condensates was quantified manually in images (610 × 499 μm) acquired with a 20× objective. To quantify the mean radius (R) of the condensates, the area covered by the condensates was divided by the number of condensates for each cell to obtain the mean size (A) of the condensates, followed by the formula of R = √(A/3.14).

U2OS TNS3KO cells [4] = assay: vinculin-positive FAs on VN; format: cell-based, human; settings: TNS3-WT vs TNS3-L702E; VN-coated, serum-free; n = 74 (WT) and 51 (L702E) cells
Experimental: as §2, §3

U2OS TNS3KO cells [5] = assay: adhesion stability under blebbistatin, U2OS TNS3KO cells; format: cell-based, human; settings: blebbistatin 50 µM
Experimental: Cells were fixed in 4% paraformaldehyde (PFA, Sigma-Aldrich), which had been prewarmed to 37°C for 15 min before being washed three times with PBS. For immunofluorescence staining, cells were permeabilized with 0.5% Triton X-100 (Sigma-Aldrich) at room temperature for 5 min before being washed three times with PBS. Blebbistatin (Tocris Bioscience) was diluted in dimethyl sulfoxide (Sigma-Aldrich) and used at a final concentration of 50 μM. The following primary antibodies were diluted in 1% bovine serum albumin (BSA, Sigma-Aldrich): mouse anti-α5 integrin (SNAKA51, 1:100, NBP2-50146; Novus Biologicals), rat anti-β1 integrin (9EG7, 1:200; 553715; BD Biosciences), mouse anti-FN (IST-9, 1:100, ab6328; Abcam), rabbit anti-tensin3 (1:200, HPA055338; Atlas), mouse anti-EEA1 (1:500, 68065-1-IG; Proteintech), mouse anti-LAMP1 (1:200, ab320851; Abcam), mouse anti-paxillin (349, 1:400, mab3060; Sigma-Aldrich), rabbit anti-talin1 (1:200, 82856-4-RR; Proteintech), mouse anti-vinculin (hVin1, 1:500, V9264; Sigma-Aldrich), rabbit anti-KANK2 (1:100, HPA015643; Sigma-Aldrich), rabbit anti-kindlin2 (1:100, 11453-1-AP; Proteintech), rabbit anti-GIT1 (1:200, 26247-1-AP; Proteintech), mouse anti-phosphotyrosine (4G10, 1:200, 05-321X; Sigma-Aldrich), rabbit anti-G3BP1 (1:600, 13057-2-AP; Proteintech), rabbit anti-TDP43 (1:400, 10782-2-AP; Proteintech), and rabbit anti-GIGYF1 (1:400, ab121784; Abcam). […]
as §3

B1: TNS3-L702E: tensin3 carrying the L702E point mutation that blocks the interaction with talin (protein, UniProt Q68CZ2 1-1445, looked up, variant L702E)
Tensin-3: MEEGHGLDLTYITERIIAVSFPAGCSEESYLHNLQEVTRMLKSKHGDNYLVLNLSEKRYDLTKLNPKIMDVGWPELHAPPLDKMCTICKAQESWLNSNLQHVVVIHCRGGKGRIGVVISSYMHFTNVSASADQALDRFAMKKFYDDKVSALMQPSQKRYVQFLSGLLSGSVKMNASPLFLHFVILHGTPNFDTGGVCRPFLKLYQAMQPVYTSGIYNVGPENPSRICIVIEPAQLLKGDVMVKCYHKKYRSATRDVIFRLQFHTGAVQGYGLVFGKEDLDNASKDDRFPDYGKVELVFSATPEKIQGSEHLYNDHGVIVDYNTTDPLIRWDSYENLSADGEVLHTQGPVDGSLYAKVRKKSSSDPGIPGGPQAIPATNSPDHSDHTLSVSSDSGHSTASARTDKTEERLAPGTRRGLSAQEKAELDQLLSGFGLEDPGSSLKEMTDARSKYSGTRHVVPAQVHVNGDAALKDRETDILDDEMPHHDLHSVDSLGTLSSSEGPQSAHLGPFTCHKSSQNSLLSDGFGSNVGEDPQGTLVPDLGLGMDGPYERERTFGSREPKQPQPLLRKPSVSAQMQAYGQSSYSTQTWVRQQQMVVAHQYSFAPDGEARLVSRCPADNPGLVQAQPRVPLTPTRGTSSRVAVQRGVGSGPHPPDTQQPSPSKAFKPRFPGDQVVNGAGPELSTGPSPGSPTLDIDQSIEQENRLILELDPTFEPIPTHMNALGSQANGSVSPDSVGGGLRASSRLPDTGEGPSRATGRQGSSAEQPLGGRLRKLSLGQYDNDAGGQLPFSKCAWGKAGVDYAPNLPPFPSPADVKETMTPGYPQDLDIIDGRILSSKESMCSTPAFPVSPETPYVKTALRHPPFSPPEPPLSSPASQHKGGREPRSCPETLTHAVGMSESPIGPKSTMLRADASSTPSFQQAFASSCTISSNGPGQRRESSSSAERQWVESSPKPMVSLLGSGRPTGSPLSAEFSGTRKDSPVLSCFPPSELQAPFHSHELSLAEPPDSLAPPSSQAFLGFGTAPVGSGLPPEEDLGALLANSHGASPTPSIPLTATGAADNGFLSHNFLTVAPGHSSHHSPGLQGQGVTLPGQPPLPEKKRASEGDRSLGSVSPSSSGFSSPHSGSTISIPFPNVLPDFSKASEAASPLPDSPGDKLVIVKFVQDTSKFWYKADISREQAIAMLKDKEPGSFIVRDSHSFRGAYGLAMKVATPPPSVLQLNKKAGDLANELVRHFLIECTPKGVRLKGCSNEPYFGSLTALVCQHSITPLALPCKLLIPERDPLEEIAESSPQTAANSAAELLKQGAACNVWYLNSVEMESLTGHQAIQKALSITLVQEPPPVSTVVHFKVSAQGITLTDNQRKLFFRRHYPVNSVIFCALDPQDRKWIKDGPSSKVFGFVARKQGSATDNVCHLFAEHDPEQPASAIVNFVSKVMIGSPKKV
modifications: mCherry or GFP tag
condensates on soft vs stiff substrate (NIH3T3 cells [1]): no difference in condensate formation on soft versus stiff substrates
reduction of adhesion-promoting effect (β1 integrin-positive adhesions) [2]: 57%
Spearman's r, expression level vs condensate coverage (NIH3T3 cells [3]; n = 181 cells (WT), 168 cells (L702E)): 0.9013
fold increase in number of condensates (NIH3T3 cells [3]; vs TNS3-WT, condensates >0.1 μm^2, circularity 0.7–1, n = 68 (WT) and 100 (L702E) cells): 2.2 fold
condensate size (NIH3T3 cells [3]; vs TNS3-WT, mean radius): larger
formation of vinculin-positive FA (U2OS TNS3KO cells [4]): no difference
subcellular localization of construct under blebbistatin (U2OS TNS3KO cells [5]): almost exclusively found in the LLPS condensates in the cytoplasm
